Patent publication US20220259289A1 (Janssen / Centocor, published 2022)

Legend:
Assay in all cases: ELISA, bacterial lysate on plate-bound antigen, luminescence
[1] = biological target: unrelated Fc-fused recombinant protein (negative control)
[2] = biological target: human serum albumin (human) (UniProt P02768)
[3] = biological target: T1, recombinant biotinylated human CD137 protein (Fc-fusion protein, R&D Systems 838-4B) (human, UniProt Q07011 24-186, biotinylated (site not stated))
T1 construct: Bought Fc fusion; The ELISA used the same antigen as the panning; also called CD137-Fc; biotinylated CD137; not shown: Fc part of the bought fusion protein
In short: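 Biotinylated CD137-Fc, an unrelated Fc-fusion protein or human serum albumin captured 1 h on streptavidin plates blocked in Starting Block T20; diluted bacterial lysate applied 1 h. Bound binders detected with HRP-conjugated anti-Centyrin antibody (PAB25) for 1 h, then POD substrate read-out.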

Sequence of human serum albumin (human) (P02768 25-609 limits assumed): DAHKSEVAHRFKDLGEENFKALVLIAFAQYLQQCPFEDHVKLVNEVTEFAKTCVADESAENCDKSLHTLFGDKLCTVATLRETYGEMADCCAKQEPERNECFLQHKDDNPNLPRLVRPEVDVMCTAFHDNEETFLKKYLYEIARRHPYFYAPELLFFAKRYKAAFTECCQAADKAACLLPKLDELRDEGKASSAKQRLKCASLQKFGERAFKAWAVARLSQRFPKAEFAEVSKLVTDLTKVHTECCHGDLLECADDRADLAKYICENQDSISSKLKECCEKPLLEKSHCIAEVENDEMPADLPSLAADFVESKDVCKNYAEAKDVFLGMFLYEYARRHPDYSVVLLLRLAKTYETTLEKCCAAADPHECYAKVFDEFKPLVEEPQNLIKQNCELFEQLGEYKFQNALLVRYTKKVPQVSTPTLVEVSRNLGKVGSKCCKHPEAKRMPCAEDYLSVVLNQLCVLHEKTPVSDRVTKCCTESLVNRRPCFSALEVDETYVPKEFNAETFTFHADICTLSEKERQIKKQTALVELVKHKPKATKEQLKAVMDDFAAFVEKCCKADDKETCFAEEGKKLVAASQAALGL

B1: ISOP120HR5P1E2 (designed binder, not shown: small tags and cut ends)
chain: LPAPKNLVVSHVTEDSARLSWTAPDAAFDSFEIYYLEGGRGEAIVLTVPGSERSYDLTVLKPGTEYLGTIYGVKCGWASNPLSAIFTT
notes: FN3 domain (Centyrin); tested as E. coli lysate
ELISA Fc Control (RLU) [1]: 720 RLU | ELISA HSA (RLU) [2]: 2880 RLU | ELISA CD137-Fc (RLU) [3]: 1.32e+06 RLU
